Measurements from patent US20080009025A1, “PROTEIN KINASE REGULATION” (priority 1999, published 2008).
Numbering of substitutions follows the chain as printed.

Assays:
[1] = target: T1, PDK1-wt (Homo sapiens, UniProt O15530); assay: Phosphorylation of AGC kinase substrates by PDK1 (32P, PhosphoImager); assay type: biochemical; details: for Relative phosphorylation of PDK1 substrates PDK1-wt +PIFtide: with PIFtide; for Relative phosphorylation of PDK1 substrates PDK1-wt +PIFtide / Relative phosphorylation of PDK1 substrates PDK1-wt —: PKB[S473D] rate with PtdIns(3,4,5)P3 = 100; for Relative phosphorylation of PDK1 substrates PDK1-wt —: without PIFtide
T1 construct: made in house; host or cells: human embryonic kidney 293 cells
T1 sequence (O15530 1-556): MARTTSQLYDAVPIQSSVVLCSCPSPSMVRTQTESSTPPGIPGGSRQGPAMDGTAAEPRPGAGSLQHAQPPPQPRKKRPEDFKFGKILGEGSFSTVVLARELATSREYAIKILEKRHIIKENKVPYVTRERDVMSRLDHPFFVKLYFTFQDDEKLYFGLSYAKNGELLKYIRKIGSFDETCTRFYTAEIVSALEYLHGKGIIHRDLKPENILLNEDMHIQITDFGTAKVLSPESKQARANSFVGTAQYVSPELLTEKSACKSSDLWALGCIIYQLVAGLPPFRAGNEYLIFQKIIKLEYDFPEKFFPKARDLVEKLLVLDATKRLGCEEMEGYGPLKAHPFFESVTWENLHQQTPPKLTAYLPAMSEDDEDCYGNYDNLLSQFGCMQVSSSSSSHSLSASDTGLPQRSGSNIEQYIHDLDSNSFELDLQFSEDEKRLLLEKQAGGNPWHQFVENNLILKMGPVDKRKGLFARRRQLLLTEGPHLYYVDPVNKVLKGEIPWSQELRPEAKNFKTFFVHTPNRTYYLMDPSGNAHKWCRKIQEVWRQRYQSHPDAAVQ
Method: (§1) Phosphorylation of AGC kinase substrates by PDK1. The phosphorylation of PDK1 substrates was performed in a final volume of 20 μl in a buffer containing 50 mM Tris-HCl pH 7.5, 0.1% (by vol) 2-mercaptoethanol, 10 mM magnesium chloride, 100 μM [γ-^32P]ATP (˜1000 c.p.m./pmol), 0.5 μM microcystin-LR, 0.6 μM AGC kinase substrate and 0.6 to 30 nM wild type PDK1 or the indicated mutant of PDK1.
(§2) Relative phosphorylation of PDK1 substrates. PDK1 substrates were phosphorylated in vitro, subjected to SDS-PAGE, and radioactivity associated with the bands measured using a Phospho-Imager and known amounts of ATP as standard. The phosphorylation rate of PKB[S473D] in the presence of PtdIns (3,4,5)P3 was 2.6 mol/mol PDK1/min and was taken as the relative value of 100. Average values from a representative experiment performed in duplicates are shown.

[2] = target: T2, PDK1-L155E (Homo sapiens, UniProt O15530, L155E); assay: as above; assay type: biochemical; details: PKB[S473D] rate by PDK1-wt = 100; for Relative phosphorylation of PDK1 substrates PDK1-L155E +PIFtide: with PIFtide; for Relative phosphorylation of PDK1 substrates PDK1-L155E —: without PIFtide
T2 construct: made in house; host or cells: human embryonic kidney 293 cells
T2 sequence (O15530 1-556 L155E): T1 sequence (O15530 1-556) with L155E
Method: as §1, §2

[3] = system: p70 S6K; assay: IGF1-induced activation and Thr412 phosphorylation of HA-p70 S6K in co-transfected 293 cells; assay type: cell-based, human; details: 293 cells
Method: FIG. 3. PIF inhibits p70 S6K activation and phosphorylation at Thr252 and Thr412. 293 cells were co-transfected with constructs expressing the wild type (wt) full length HA-p70 S6K (A) or the full length HA-T412E p70 S6K (B) with either GST-PIF, GST-F977A-PIF, or GST. 24 h post transfection the cells were serum starved for 16 h and them stimulated for 40 min with 100 nM IGF 1. The cells were lysed and HA-p70 S6K was immunoprecipitated and assayed as described in methods. Protein from each lysate (10 μg for the HA blots or 20 μg for the T412-P blot) was electrophoresed on a 10% SDS/polyacrylamide gel and immunoblotted using HA-antibody or the T412-P antibody. The T412-P antibody was incubated with either the synthetic peptide (10 μg/ml) corresponding to residues 401 to 418 of p70 S6K phosphorylated at Thr412 (phosph-412E peptide), or the unphosphorylated peptide (de-phospho-Thr412 peptide). The T412-P antibody consistently recognises a protein termed “non specific band” in cell lysates which migrate at (75 kDa) derived from non transfected and transfected cells. […] It is not co-immunoprecipitated with HA-p70 S6K (date not shown). The HA-p70 S6K activities shown are the average ±SEM for a single experiment carried out in triplicate. Similar results were obtained in 8 separate experiments (A) and 2 experiments (B). The immunoblotting was carried out in 3 separate experiments with similar results.
Transient Transfection Experiments. The DNA constructs encoding for the wild type and mutant forms of HA-p70 S6K in the pMT2 vector used in this study have been described previously. […] The constructs used to express GST-PIF and the mutant GST-F977A-PIF [22] are in the pEBG2T vector. The empty pEBG2T vector was used to express GST protein in control experiments. DNA constructs used in this study were purified from bacteria using the Qiagen plasmid Mega kit according to the manufacturer's protocol.
293 cells cultured on 10 cm diameter dishes in Dulbecco's Modified Eagle's Medium containing 10% (by vol) foetal bovine serum, were transfected with 2 μg of DNA construct encoding either wild type or mutant HA-p70 S6K or HA-PKBα, and 10 μg of DNA construct encoding either GST-PIF, GST-F977A-PIF, GST, Myc-PDK1, kinase-dead Myc-PDK1, or the empty pCMV5 vector using a modified calcium phosphate method. 24 h post transfection the cells were deprived of serum for 16 h, and exposed to IGF1 (100 nM) for the time indicated. The cells were lysed in 1 ml of lysis buffer (50 mM Tris/HCl pH 7.5, 1 mM EDTA, 1 mM EGTA, 1% (by vol) Triton X-100, 1 mM sodium orthovanadate, 10 mM sodium β-glycerophosphate, 50 mM NaF, 5 mM sodium pyrophosphate, 1 μM microcystin-LR, 0.27 M sucrose and protease cocktail tablets), cleared by centrifugation, and 50 μg of protein was subjected to immunoprecipitation with anti HA monoclonal antibody. The protein concentrations of the lysates were determined by the Bradford method.
Kinase assays. The HA-p70 S6K or HA-PKBα immunoprecipitates were washed and assayed for kinase activity using the peptide Crosstide (GRPRTSSFAEG) as described previously for PKBα [28]. One unit of activity, U, was that amount which catalysed the phosphorylation of 1 nmol of substrate in one minute.
Immunoblotting for dephosphorylated and Thr412-phosphorylated p70 S6 kinase. Cell lysates were made 1% SDS and the indicated amounts of protein were subjected to SDS/Polyacrylamide gel electrophoresis, subsequently transferred to nitrocellulose and immunoblotted using the indicated monoclonal antibody or the T412-P phospho-specific antibody (0.4 μg/ml) in 50 mM Tris/HCl pH7.5, 0.15M NaCl, 0.5% (by vol) Tween and 10% (by mass) skimmed milk. Detection was performed using the enhanced chemiluminescence reagent (Amersham Pharmacia Biotech).

[4] = system: PDK1; details: ref [22]; cited from earlier work
[5] = target: T3, PDK1 (Homo sapiens, UniProt O15530); assay: Phosphorylation of GST-p70 S6K-T2 by PDK1 in vitro (32P autoradiography); assay type: biochemical; set-up: made in house; host or cells: 293 cells or E. coli; details: GST fusion 1.5 μM; GST-PDK1 50 nM
T3 sequence (O15530 1-556): T1 sequence (O15530 1-556)
Method: FIG. 1. PIF prevents PDK1 from phosphorylating p70 S6K in vitro. GST-p70 S6K lacking the C-terminal 104 amino acids (GST-p70 S6KT2) (1 μg) was incubated for 30 min at 30° C. with Mg [γ^32P] ATP and GST-PDK1 (50 nM) in the presence or absence of either wild type (wt) GST-PIF or D978A GST-PIF (1.5 μM), or the indicated PIF peptides (4 μM) in a final volume of 20 μl. The reactions were terminated by making the solutions 1% in SDS, the samples subjected to SDS-polyacylamide gel electrophoresis, and the phosphorylation assessed by autoradiography of the gel. The position in the gel where GST-p70 S6KT2 (73 kDa) migrates is indicated with an arrow. The only other ^32P-labelled protein on the gel which is not shown, corresponded to autophosphorylation of PDK1 and contained ˜10 fold lower levels of ^32P-radioactivity than that of the GST-p70 S6T2 phosphorylated by PDK1 in the absence of PIF. A high amount of PDK1 is used in this experiment to achieve a near maximal phosphorylation of GST-p70 S6T2. If the reactions were carried out at a 10-fold lower concentration of PDK1 under conditions where the phosphorylation of GST-p70 S6T2 by PDK1 is linear with time and the amount of substrate used, then PIF still prevented the phosphorylation of GST-p70 S6T2 (data not shown). wt indicates wild type and PSer indicates phospho-serine. The results of a duplicate experiment for each condition are shown, and similar findings were obtained in five separate experiments.
Preparation of insect cell His-p70 S6K. p70 S6K with a His-epitope tag at its N-terminus lacking the carboxy terminal 104 residues is termed p70 S6K-T2. In order to prepare wild type and the mutant 412E-p70 S6K-T2 the cDNA for these constructs was amplified by PCR from the pMT2 vector encoding these forms of p70 S6K [6] using the following oligonucleotides: 5′-AGGATCCACCATGCACCATCACCATCACCATATGAGGCGAGCAAGGAGGCGG-3′ and 5′-GCGGCCGCTCAACTTTCAAGTACAGATGGAGCC-3′. The PCR products were then subcloned into the BamH1/Not1 sites of the pFASTBAC 1 vector and this vector was used to generate recombinant baculovirus using the Bac-to-Bac system (Life Technologies Inc). The resulting viruses, encoded p70 S6K-T2 or 412E-p70 S6K-T2 with an N-terminal hexahistidine sequence, and was used to infect Sf21 cells (1.5×10^6/m) at a multiplicity of infection of 5. The infected cells were harvested 72 h post-infection and the His-p70 S6K proteins purified by Ni^2+/NTA (nitrilotriacetic acid)-agarose chromatography as described previously for PKBβ [25]. […]

Substance | Relative phosphorylation of PDK1 substrates PDK1-wt +PIFtide [1] | Relative phosphorylation of PDK1 substrates PDK1-wt — [1] | Relative phosphorylation of PDK1 substrates PDK1-L155E +PIFtide [2] | Relative phosphorylation of PDK1 substrates PDK1-L155E — [2] | HA-p70 S6K activity after IGF1 stimulation ([3]; 100 nM IGF1 40 min) | IGF1-induced phosphorylation of HA-p70 S6K at Thr412 ([3]; T412-P antibody) | affinity for PDK1 compared with wild type PIF [4] | effect on phosphorylation of GST-p70 S6K-T2 by PDK1 [5] | phosphorylation rate ([1]; in the presence of PtdIns (3,4,5)P3) [mol/mol PDK1/min]
FL-PKB: full length GST-tagged PKBα | 19.3 | 28 | 35 | 35 | – | – | – | – | –
GST-F977A-PIF: mutant form of GST-PIF which interacts with PDK1 weakly | – | – | – | – | substantially activated | still occurred but a lower level | – | – | –
GST-D978A-PIF: mutant GST-PIF in which the amino acid equivalent to Asp978 in PRK2 is mutated to Ala | – | – | – | – | – | – | markedly reduced affinity | poorly inhibited | –
FL-PKB 473D: full length PKBα with Ser473 mutated to Asp | 85.4 | 100 | 162 | 178 | – | – | – | – | 2.6
